Assay results from US20240174992A1, “SPLIT MODIFIED DEHALOGENASE VARIANTS” (Promega Corporation, priority 2022, published 2024).
Each block holds one binder with its values, some of them ahead of it.

What was measured:
Assay in all cases: cell-based or functional assay
[1] = biological target: spHT 80 C-terminal fragment [81-297] fused to FRB or FKBP
[2] = biological target: spHT 180 C-terminal fragment [181-297] fused to FRB or FKBP
[3] = biological target: spHT 133 C-terminal fragment [134-297] fused to FRB or FKBP
[4] = biological target: spHT 195 C-terminal fragment [196-297] fused to FRB or FKBP
[5] = biological target: spHT 145 C-terminal fragment [146-297] fused to FRB or FKBP
[6] = biological target: spHT 19 C-terminal fragment [20-297] fused to FRB or FKBP
[7] = biological target: spHT 157 C-terminal fragment [158-297] fused to FRB or FKBP

B2: spHT 180 N-terminal fragment [1-180] fused to FRB or FKBP (protein, part only; not given: FRB or FKBP partner, orientation, part only)
chain, part: MAEIGTGFPFDPHYVEVLGERMHYVDVGPRDGTPVLFLHGNPTSSYVWRNIIPHVAPTHRCIAPDLIGMGKSDKPDLGYFFDDHVRFMDAFIEALGLEEVVLVIHDWGSALGFHWAKRNPERVKGIAFMEFIRPIPTWDEWPEFARETFQAFRTTDVGRKLIIDQNVFIEGTLPMGVVRP
fold increase in JF646 fluorescence with 50 nM rapamycin (E. coli lysates) [2]: > 2 fold

B4: spHT 195 N-terminal fragment [1-195] fused to FRB or FKBP (protein, part only; not given: FRB or FKBP partner, orientation, part only)
chain, part: MAEIGTGFPFDPHYVEVLGERMHYVDVGPRDGTPVLFLHGNPTSSYVWRNIIPHVAPTHRCIAPDLIGMGKSDKPDLGYFFDDHVRFMDAFIEALGLEEVVLVIHDWGSALGFHWAKRNPERVKGIAFMEFIRPIPTWDEWPEFARETFQAFRTTDVGRKLIIDQNVFIEGTLPMGVVRPLTEVEMDHYREPFLN
fold increase in JF646 fluorescence with 50 nM rapamycin (E. coli lysates) [4]: > 2 fold

B5: spHT 145 N-terminal fragment [1-145] fused to FRB or FKBP (protein, part only; not given: FRB or FKBP partner, orientation, part only)
chain, part: MAEIGTGFPFDPHYVEVLGERMHYVDVGPRDGTPVLFLHGNPTSSYVWRNIIPHVAPTHRCIAPDLIGMGKSDKPDLGYFFDDHVRFMDAFIEALGLEEVVLVIHDWGSALGFHWAKRNPERVKGIAFMEFIRPIPTWDEWPEFA
fold increase in JF646 fluorescence with 50 nM rapamycin (E. coli lysates) [5]: > 2 fold

Binder: MAEIGTGFPFDPHYVEVLG (peptide, part only; not given: FRB or FKBP partner, orientation, part only) [spHT 19 N-terminal fragment [1-19] fused to FRB or FKBP]
increase in JF646 fluorogenic signal at a N:C fragment ratio of 10 [6]: 25%
increase in TMR labeling efficiency on raising the N:C fragment ratio from 1.25 to 10 [6]: > 100%

B6: spHT 157 N-terminal fragment [1-157] fused to FRB or FKBP (protein, part only; not given: FRB or FKBP partner, orientation, part only)
chain, part: MAEIGTGFPFDPHYVEVLGERMHYVDVGPRDGTPVLFLHGNPTSSYVWRNIIPHVAPTHRCIAPDLIGMGKSDKPDLGYFFDDHVRFMDAFIEALGLEEVVLVIHDWGSALGFHWAKRNPERVKGIAFMEFIRPIPTWDEWPEFARETFQAFRTTDV
fold increase in JF646 fluorescence with 50 nM rapamycin (E. coli lysates) [7]: > 2 fold

Second part, the binder after the results:

fold increase in JF646 fluorescence with 50 nM rapamycin (E. coli lysates) [1]: > 2 fold
B1: spHT 80 N-terminal fragment [1-80] fused to FRB or FKBP (protein, part only; not given: FRB or FKBP partner, orientation, part only)
chain, part: MAEIGTGFPFDPHYVEVLGERMHYVDVGPRDGTPVLFLHGNPTSSYVWRNIIPHVAPTHRCIAPDLIGMGKSDKPDLGYF

fold increase in JF646 fluorescence with 50 nM rapamycin (E. coli lysates) [3]: > 2 fold
B3: spHT 133 N-terminal fragment [1-133] fused to FRB or FKBP (protein, part only; not given: FRB or FKBP partner, orientation, part only)
chain, part: MAEIGTGFPFDPHYVEVLGERMHYVDVGPRDGTPVLFLHGNPTSSYVWRNIIPHVAPTHRCIAPDLIGMGKSDKPDLGYFFDDHVRFMDAFIEALGLEEVVLVIHDWGSALGFHWAKRNPERVKGIAFMEFIR
